± gives the half width of the 95% confidence interval.
Tests used:
[1] = folding stability dG unfold from chymotrypsin proteolysis; higher = more stable
In short: (§1)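 Mini-proteins designed to be under 80 residues and free of cysteine were carried in a PA-tagged cDNA display construct and digested with trypsin and with chymotrypsin. Each protease was applied at 11 threefold-diluted concentrations, alongside a no-protease condition, before sequencing. K50 came from Bayesian fitting of the sequencing counts, and unfolding free energy was obtained by comparing it with a sequence-predicted unfolded-state K50 and a shared folded-state K50, for each protease separately or for both together. Designs were retained only if their AlphaFold2 dimer inter-PAE exceeded 15.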

[2] = folding stability dG unfold from trypsin proteolysis; higher = more stable
In short: as §1

[3] = folding stability dG unfold (combined trypsin and chymotrypsin); higher = more stable
In short: as §1

Row | Sequence | folding stability dG unfold [1] [kcal/mol] | folding stability dG unfold [2] [kcal/mol] | folding stability dG unfold [3] [kcal/mol]
1 | SAGGSAGGSMYIVRIEVVNEETGKTEEIELEVSEEEAEELAKELAEKLPNIKEIKVEIRPLPESAGGSAGGS [r12_757_TrROS_Hall] | 1.96 ± 0.051 | 1.37 ± 0.15 | 1.66 ± 0.21
2 | SAGGSAGGSMYRVRIKVRNRETGEWLEIELEVPEGVTEEELKAALRELFPDAEIVDIEIEKLPSAGGSAGGS [r12_738_TrROS_Hall] | 4.34 ± 0.11 | 3.68 ± 0.14 | 4.12 ± 0.2
3 | SAGGSAGGSMYVVKIKLKVYGENGEEYYFELELEVPEDELGEIEIELPGENLEFEAEVEVLPGSAGGSAGGS [r12_354_TrMRF] | 3.73 ± 0.12 | 2.63 ± 0.15 | 3.38 ± 0.14
4 | SAGGSAGGSNGDKKPPVKWEWVMIEIEIPPDDIDEIAEEFPGFSVNYERDNGHYRVNIMIPVPYSAGGSAGG [r6_686_TrROS] | 1.94 ± 0.093 | 1.35 ± 0.021 | 1.73 ± 0.089
5 | SAGGSAGGSNMPIKNVELHPLPNGWYLIKIRYGGKTRTFLFPPGAPFEIPLPPGMEIDIYPLNSAGGSAGGS [r12_373_TrROS] | 3.933 ± 0.038 | 3.73 ± 0.066 | 3.84 ± 0.043
6 | SAGGSAGGSNNPDKKKKPRYVVIQIELKWYPNPNGQWSPELEITATVPAGDLEDKDDAIKDIISAGGSAGGS [r12_933_TrROS] | 1.29 ± 0.064 | 2.13 ± 0.098 | 1.68 ± 0.17
7 | SAGGSAGGSNWYQFTIPFPIPPDEPVEIKLPDGWEIHEIPPNSGRITIYMPMNNMDAIKEAIGSAGGSAGGS [r12_476_TrROS] | 1.01 ± 0.045 | 1.214 ± 0.012 | 1.19 ± 0.056
8 | SAGGSAGGSPANIKITTTLDTETGYLTIVAYNPATGKVTVLTAKIYGNVPHIDGLEALFGALGSAGGSAGGS [r20_131_TrMRF] | 3.02 ± 0.078 | 2.07 ± 0.086 | 2.7 ± 0.18
9 | SAGGSAGGSPAPDVTIEVKVTYDPETGALRIEVEATIPGGGKITIEYTIPPLDKIEIVGVKIESAGGSAGGS [r12_1029_TrMRF] | 3.83 ± 0.2 | 2.63 ± 0.15 | 3.6 ± 0.26
10 | SAGGSAGGSPDAPPPPVNVVVPIPESELLSEEELPGGTTLRTYRLPDGTEITVRTAPDGRVTVDSAGGSAGG [r6_119_JUSTAS] | 3.86 ± 0.059 | 3.01 ± 0.16 | 3.57 ± 0.13
11 | SAGGSAGGSPEVLASFPLKDGSVVIVARRPGEIRVLVVKSSDLENIPELKDIKVFPTFGDDPVSAGGSAGGS [r12_343_TrMRF] | 1.18 ± 0.077 | 1.03 ± 0.041 | 1.19 ± 0.05
12 | SAGGSAGGSPGNYIIQIEIKFPGRKHTWHVDSPEEALEQLKNDLEKQHPNAPITDVEIEVFPLSAGGSAGGS [r12_429_TrROS] | 0.155 ± 0.94 | 0.791 ± 0.2 | 0.556 ± 0.46
13 | SAGGSAGGSPIEEIVAELKVPPGTTVKFPDGSTITLNSREDLLKLAKEGYPPEKLKDITVEAVSAGGSAGGS [r12_430_JUSTAS] | 1.08 ± 0.059 | 0.308 ± 0.071 | 0.856 ± 0.089
14 | SAGGSAGGSPKPIPIKIDEVWPNPDNGKDYIVKIEFPDGKKHTFTSPEDIRKLPGFDVEVYELSAGGSAGGS [r20_192_TrROS] | 0.783 ± 0.27 | 0.123 ± 0.058 | 0.621 ± 0.2
15 | SAGGSAGGSPKVTTSTSSSVLGNGRLESTVSNPDLGVTTLTLTDPESDVVTTFTETAGSTTPAASAGGSAGG [r6_757_JUSTAS] | 0.815 ± 0.037 | 0.132 ± 0.025 | 0.606 ± 0.031
16 | SAGGSAGGSPNPKNVKIYLVALDPDKPEVVAEASFNITVDTEEELEAILKELVPLFPGAKVFASAGGSAGGS [r12_1043_TrMRF] | 1.25 ± 0.12 | 0.853 ± 0.086 | 1.13 ± 0.1
17 | SAGGSAGGSPNTVPIPIRVEWYDPKDGEPKDEHPFNINFKTEEEAEDIIDNIAPDHPGMKIEISAGGSAGGS [r12_1043_TrROS] | -0.322 ± 0.11 | 0.233 ± 0.096 | 0.0133 ± 0.14
